In patent US6835382B2, “Ii peptide therapeutics to enhance antigen presentation” (University of Massachusetts, priority 1996, dated 2004):
Non-standard residues stand in square brackets, D forms with d. Cit = NC(=O)NCCC[C@H](N)C(=O)O; Orn = NCCC[C@H](N)C(=O)O

Target: T1, murine E^d MHC class II allele (Mus musculus, UniProt P01904+P01915)
T1 sequence (P01904 26-255): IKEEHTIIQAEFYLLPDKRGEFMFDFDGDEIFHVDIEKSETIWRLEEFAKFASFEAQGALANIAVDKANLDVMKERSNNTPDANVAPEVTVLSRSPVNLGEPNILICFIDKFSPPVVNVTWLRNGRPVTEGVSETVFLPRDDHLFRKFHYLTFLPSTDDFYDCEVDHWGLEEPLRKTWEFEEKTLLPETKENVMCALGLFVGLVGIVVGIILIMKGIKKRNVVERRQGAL
T1 sequence (P01915 27-264 limits assumed): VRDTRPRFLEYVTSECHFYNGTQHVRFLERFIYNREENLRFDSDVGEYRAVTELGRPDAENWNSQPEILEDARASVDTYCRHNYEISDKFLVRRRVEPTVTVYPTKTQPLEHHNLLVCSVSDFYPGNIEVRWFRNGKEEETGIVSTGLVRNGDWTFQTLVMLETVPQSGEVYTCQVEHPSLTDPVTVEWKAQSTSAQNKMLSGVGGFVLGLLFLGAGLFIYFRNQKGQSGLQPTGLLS
Experiment: processed antigen assay, E^d allele (APC pulsed with native HEL)
Assay type: cell-based
Parameters: The A20 and CH27 B cell lymphoma lines express H-2^d and H-2^k alleles, respectively; endogenous in cells; host or cells: A20 B cell lymphoma (mitomycin C-treated or paraformaldehyde-fixed)
Settings: AE peptide 64 μM; for T cell response relative to baseline (None = 1.00), E^d: Table 31; for T cell response relative to baseline (None = 1.0), 5 μM HEL E^d, first value / T cell response relative to baseline (None = 1.0), 5 μM HEL E^d, second value / T cell response relative to baseline (None = 1.0), 10 μM HEL E^d, first value / T cell response relative to baseline (None = 1.0), 10 μM HEL E^d, second value / T cell response relative to baseline (None = 1.0), 20 μM HEL E^d, first value / T cell response relative to baseline (None = 1.0), 20 μM HEL E^d, second value: Table 29; for T cell response relative to baseline (None = 1.0), 5 μM HEL E^d, first value / T cell response relative to baseline (None = 1.0), 5 μM HEL E^d, second value: native HEL prepulse 5 μM; for T cell response relative to baseline (None = 1.0), 5 μM HEL E^d, first value / T cell response relative to baseline (None = 1.0), 10 μM HEL E^d, first value / T cell response relative to baseline (None = 1.0), 20 μM HEL E^d, first value: supernatant dilution 1:4 (first value); for T cell response relative to baseline (None = 1.0), 5 μM HEL E^d, second value / T cell response relative to baseline (None = 1.0), 10 μM HEL E^d, second value / T cell response relative to baseline (None = 1.0), 20 μM HEL E^d, second value: supernatant dilution 1:8 (second value)
Experimental: In a third type of assay, the “processed antigen assay”, certain of the AE101 series of peptides inhibit stimulation of specific T cell hybridomas by antigenic peptides which are derived from the endogenous processing of a native protein antigen. This assay, which is related to the peptide prepulse assay, is performed by incubating APC with native protein antigen for 8 h, after which the pulsed APC are washed and treated with mitomycin C. Those pulsed APC are then combined with AE101 series peptides and T cell hybridomas and are incubated for 24 h. After that incubation, an aliquot of the culture supernatant is transferred to a second culture to measure T cell stimulation, as reflected in the effect of released interleukins on the growth of an interleukin-dependent, indicator cell line. During the 8 h incubation with native protein antigen, the protein antigen is taken into the APC. The native protein enters the processing pathway within the APC, where it is enzymatically cleaved to peptide fragments. Those peptide fragments with high affinity for the particular MHC class II molecules produced by the APC form antigenic peptide/MHC class II complexes which are transported to the cell surface. At the cell surface, the MHC class II molecules are contacted by the AE101 peptides, which cause the release of the antigenic peptide by the same mechanism proposed for the “peptide prepulse” assay above.
The “processed antigen assay” was carried out under essentially the same conditions as the “peptide prepulse assay”, with the following modifications. Untreated APC were incubated at 1×10^6/mL in 24-well plates (1 mL/well) with native protein antigen for 8 h. Following that incubation, the pulsed APC were washed, treated with mitomycin C, and washed again. AE101 series peptide was added at 64 μM, 16 μM, 4 μM, and 1 μM concentrations for 24 h in the presence of the T cell hybridoma specific for the antigenic peptide. Interleukin release from these cultures was measured by proliferation of HT-2 cells to interleukins in supernatants transferred from the primary culture. The baseline T cell response was measured by culturing T hybridoma cells with the native antigen-prepulsed APC in the absence of AE101 series peptides.
The “processed antigen assay” was carried out under essentially the same conditions as the “peptide prepulse” assay, with the following modifications. Untreated APC were incubated at 1×10^6/mL in 24-well plates (1 mL/well) with native protein antigen for 8 h. Following incubation, the pulsed APC were washed, treated with mitomycin C, and were washed again. The assay conditions were then as described for “peptide prepulse” above. The baseline T cell response was measured by culturing T hybridoma cells with the native antigen-prepulsed APC in the absence of AE101 peptides.
Table 2.9: Activities of substitution series at Leucine^80 in AE114 in a processed antigen assay. […] The results in this assay constitute, relatively, a mirror image of the result in the simultaneous assay (Example 1, Table 7) and parallel those of the antigenic peptide prepulse assay (Example 5, Table 24). Untreated APC were incubated with native HEL, instead of antigenic peptide, for 8 h. After incubation, the pulsed cells were washed and mitomycin C treated before being cocultured with AE-peptides and T cell hybridomas. Wells containing only T cells and native HEL-prepulsed APC were used to determine the Baseline response, or 1, in the absence of AE peptides. The concentration of AE peptide used was 64 μM for these assays. The supernatant dilutions used in the HT-2 cell assay were 1:4 (first value) and 1:8 (second value).

[1] = Table 32, native HEL prepulse 20 μM, supernatant dilution 1:4
[2] = Table 30, native HEL prepulse 10 μM, supernatant dilution 1:8
[3] = native HEL prepulse 10 μM, supernatant dilution 1:4

Row | Substance | T cell response relative to baseline (None = 1.0), E^d [2] | T cell response relative to baseline (None = 1.00), E^d [3] | T cell response relative to baseline (None = 1.0), 5 μM HEL E^d, first value | T cell response relative to baseline (None = 1.0), 5 μM HEL E^d, second value | T cell response relative to baseline (None = 1.0), 10 μM HEL E^d, first value (native HEL prepulse 10 μM) | T cell response relative to baseline (None = 1.0), 10 μM HEL E^d, second value (native HEL prepulse 10 μM) | T cell response relative to baseline (None = 1.0), 20 μM HEL E^d, first value (native HEL prepulse 20 μM) | T cell response relative to baseline (None = 1.0), 20 μM HEL E^d, second value (native HEL prepulse 20 μM) | also measured
1 | Ac-LRM M LPK-NH2 (Ac-LRMMLPK-NH2) [AE220] |  |  |  |  |  |  |  |  | T cell response relative to baseline (None = 1.0), E^d [1]: 0.63
2 | Ac- (mL) RMKLPK-NH2 [AE174] | 0.86 |  |  |  |  |  |  |  | 
3 | Ac-ARMKNPK-NH2 [AE345] |  | 0.81 |  |  |  |  |  |  | 
4 | Ac-LR (mL) KyPk-NH2 [AE306] | 0.68 |  |  |  |  |  |  |  | 
5 | Ac-LRMK Q PK-NH2 (Ac-LRMKQPK-NH2) [AE233] |  |  | 0.48, | 0.36 | 0.53, | 0.47 | 0.74, | 0.68 | 
6 | Ac-Y[Cit]MKLPKSAK-NH2 [AE131] |  | 0.49 |  |  |  |  |  |  | 
7 | Ac-LRNKNPF-NH2 [AE348] |  | 0.81 |  |  |  |  |  |  | 
8 | Ac-ARMKLPKSAK-NH2 [AE120] |  | 0.51 |  |  |  |  |  |  | 
9 | Ac-LRMK (mL) PK-NH2 [AE175] | 0.70 |  |  |  |  |  |  |  | 
10 | Ac-LRMK Y PK-NH2 (Ac-LRMKYPK-NH2; not fully specified; printed as Ac-LRMK Y PK-NH2) [AE235] | 0.19 | 0.53 | 0.33, | 0.38 | 0.42, | 0.39 | 0.71, | 0.56 | T cell response relative to baseline (None = 1.0), E^d [1]: 0.46; T cell response relative to baseline (None = 1.0), E^d (Table 33, native HEL prepulse 10 μM, supernatant dilution 1:8): 0.45; Activity in processed antigen assay, E^d (baseline = 1.0) (Table 34, native HEL 10 μM prepulse, supernatant 1:8): 0.19
11 | Ac-LRLKyPK-NH2 [AE308] | 0.60 |  |  |  |  |  |  |  | 
12 | Ac-LR N KLPK-NH2 (Ac-LRNKLPK-NH2) [AE202] |  | 0.76 |  |  |  |  |  |  | 
13 | Ac-LRMK Cit PK-NH2 (Ac-LRMK[Cit]PK-NH2; SMILES CSCC[C@H](NC(=O)[C@H](CCCNC(=N)N)NC(=O)[C@H](CC(C)C)NC(C)=O)C(=O)N[C@@H](CCCCN)C(=O)N[C@@H](CCCNC(N)=O)C(=O)N1CCC[C@H]1C(=O)N[C@@H](CCCCN)C(N)=O) [AE226] |  |  | 0.60, | 0.34 | 0.68, | 0.58 | 0.95, | 0.87 | 
14 | Ac-LR (mL) KYPk-NH2 [AE305] | 0.70 |  |  |  |  |  |  |  | 
15 | Ac-LRMK l PK-NH2 [AE164] | 0.64 |  |  |  |  |  |  |  | 
16 | Ac-LRMK[Orn]PK-NH2 [AE225] |  |  | 0.26, | 0.38 | 0.32, | 0.30 | 0.59, | 0.48 | 
17 | Ac-LRMKLP[Cit]-NH2 [AE241] |  |  |  |  |  |  |  |  | T cell response relative to baseline (None = 1.0), E^d [1]: 0.63
18 | Ac-LRMK M PK-NH2 (Ac-LRMKMPK-NH2) [AE236] |  |  | 0.41, | 0.58 | 0.56, | 0.53 | 0.76, | 0.72 | 
19 | Ac-LRLKYPK-NH2 [AE301] | 0.19 | 0.46 |  |  |  |  |  |  | T cell response relative to baseline (None = 1.0), E^d [1]: 0.54
20 | Ac-LR HArg KLPK-NH2 [AE197] |  |  |  |  |  |  |  |  | T cell response relative to baseline (None = 1.0), E^d [1]: 0.45
21 | Ac-LRMK H PK-NH2 (Ac-LRMKHPK-NH2) [AE228] |  |  | 0.35, | 0.45 | 0.41, | 0.41 | 0.71, | 0.61 | 
22 | Ac-Y K MKLPKSAK-NH2 [AE134] |  |  |  |  |  |  |  |  | T cell response relative to baseline (None = 1.0), E^d [1]: 0.50
23 | Ac-LRMK F PK-NH2 (Ac-LRMKFPK-NH2) [AE234] |  |  | 0.51, | 0.62 | 0.65, | 0.60 | 0.98, | 0.88 | 
24 | Ac-LRMK D PK-NH2 (Ac-LRMKDPK-NH2) [AE230] |  |  | 0.81, | 0.62 | 0.93, | 0.77 | 1.1, | 0.98 | 
25 | Ac-L[Cit]MKNPK-NH2 [AE342] |  | 0.64 |  |  |  |  |  |  | 
